According to US20190343963A1 (published 2019):
Residue numbers refer to the chain shown, from its start. Names may count otherwise.

B1: IL-13 DARPin ΔK (protein)
chain: ALDRRLLEAARAGQDDEVRILMANGADVNARDSYGSTPLHLAAREGHLEIVEVLLQYGADVNAADFIGDTPLHLAAYRGHLEIVEVLLQYGADVNASDITGETPLHLAAQIGHLEIVEVLLQHGADVNAQDIFGRTAFDISIDNGNEDLAEILQRAA
B2: SH111 wt ΔK (protein)
chain: TYNGCSSSEQSALAAAASAAQSYVAESLSYLQTHTAATPRYTTWFGSYISSRHSTVLQHYTDMNSNDFSSYSFDCTCTAAGTFAYVYPNRFGTVYLCGAFWQAPTTGTDSQAGTLVHESSHFTRNGGTDDYAYGQAAAQSLATMNPDQAVMNADNHEYFSENNPAQSAAAGGGGSGDLGRRLLEAARAGQDDEVRILMANGADVNAADYFSHTPLHLAARNGHLEIVEVLLQYGADVNASDFAGRTPLHLAANDGHLEIVEVLLQHGADVNAQDIFGRTPADIAADNGHEDIAEVLQRAAGGGGSGGGGSGGGGSGGGGSGGGGSGGGGSGGGSSALDRRLLEAARAGQDDEVRILMANGADVNARDSYGSTPLHLAAREGHLEIVEVLLQYGADVNAADFIGDTPLHLAAYRGHLEIVEVLLQYGADVNASDITGETPLHLAAQIGHLEIVEVLLQHGADVNAQDIFGRTAFDISIDNGNEDLAEILQRAA
B3: SH111 E157Q ΔK (protein)
chain: B2 chain with E157Q
B4: SH111 NQ ΔK (protein)
chain: B2 chain with D154N, E157Q
B5: SH111 D154N ΔK (protein)
chain: SSYSFDCTCTAAGTFAYVYPNRFGTVYLCGAFWQAPTTGTDSQAGTLVHESSHFTRNGGTDDYAYGQAAAQSLATMNPDQAVMNANNHEYFSENNPAQSAAAGGGGSGDLGRRLLEAARAGQDDEVRILMANGADVNAADYFSHTPLHLAARNGHLEIVEVLLQYGADVNASDFAGRTPLHLAANDGHLEIVEVLLQHGADVNAQDIFGRTPADIAADNGHEDIAEVLQRAAGGGGSGGGGSGGGGSGGGGSGGGGSGGGGSGGGSSALDRRLLEAARAGQDDEVRILMANGADVNARDSYGSTPLHLAAREGHLEIVEVLLQYGADVNAADFIGDTPLHLAAYRGHLEIVEVLLQYGADVNASDITGETPLHLAAQIGHLEIVEVLLQHGADVNAQDIFGRTAFDISIDNGNEDLAEILQRAA
B6: 111 7g11 Alb22 NQ (protein)
chain: ATYNGCSSSEQSALAAAASAAQSYVAESLSYLQTHTAATPRYTTWFGSYISSRHSTVLQHYTDMNSNDFSSYSFDCTCTAAGTFAYVYPNRFGTVYLCGAFWQAPTTGTDSQAGTLVHESSHFTRNGGTDDYAYGQAAAQSLATMNPDQAVMNANNHQYFSENNPAQSAAAGGGGSGDLGRRLLEAARAGQDDEVRILMANGADVNAADYFSHTPLHLAARNGHLEIVEVLLQAGADVNASDFAGKTPLHLAANDGHLEIVEVLLQHGADVNAQDIFGRTPADIAADAGHEDIAEVLQRLNGGGGSGGGGSGGGGSGGGGSGGGGSGGGGSGGGSSGLDRRLLEAARAGQDDEVRILMANGADVNATDEFDSTPLHLAARHGHLEIVEVLLQYGADVNAADFIGDTPLHLAAYRGHLEIVEVLLQYGVDVNADDHGDTPLHLAASTGHLEIVEVLLQHGADVNAQDIFGRTAFDISIDNGNEDLAEILQRAA
B7: 111 7g11 Alb22 (protein)
chain: TYNGCSSSEQSALAAAASAAQSYVAESLSYLQTHTAATPRYTTWFGSYISSRHSTVLQHYTDMNSNDFSSYSFDCTCTAAGTFAYVYPNRFGTVYLCGAFWQAPTTGTDSQAGTLVHESSHFTRNGGTDDYAYGQAAAQSLATMNPDQAVMNADNHEYFSENNPAQSAAAGGGGSGDLGRRLLEAARAGQDDEVRILMANGADVNAADYFSHTPLHLAARNGHLEIVEVLLQAGADVNASDFAGKTPLHLAANDGHLEIVEVLLQHGADVNAQDIFGRTPADIAADAGHEDIAEVLQRLNGGGGSGGGGSGGGGSGGGGSGGGGSGGGGSGGGSSGLDRRLLEAARAGQDDEVRILMANGADVNATDEFDSTPLHLAARHGHLEIVEVLLQYGADVNAADFIGDTPLHLAAYRGHLEIVEVLLQYGVDVNADDHGDTPLHLAASTGHLEIVEVLLQHGADVNAQDIFGRTAFDISIDNGNEDLAEILQRAA

These binders were tested against T1, FLAG-tagged human IL-13 (human, UniProt P35225 35-146) (assay: competition ELISA; 1 h incubation).
T1 sequence (P35225 35-146): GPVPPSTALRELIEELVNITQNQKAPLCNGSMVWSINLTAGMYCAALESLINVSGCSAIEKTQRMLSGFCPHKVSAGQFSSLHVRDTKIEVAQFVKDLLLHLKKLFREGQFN

| EC50 | Binder |
| --- | --- |
| 13700 pM | B1 |
| 65 pM | B2 |
| 80 pM | B3 |
| 705 pM | B4 |
| 802 pM | B5 |

Target: T1, FLAG-tagged human IL-13
Assay: competition ELISA; 1 h incubation
Remark: another data set of the same source

| EC50 | Binder |
| --- | --- |
| 75 pM | B6 |
| 19 pM | B7 |

What follows are binders tested against T1, FLAG-tagged human IL-13 (assay: competition ELISA; 24 h incubation).

| EC50 | Binder |
| --- | --- |
| 21200 pM | B1 |
| 2 pM | B2 |
| 3 pM | B3 |
| 27 pM | B4 |
| 15 pM | B5 |

Target: T1, FLAG-tagged human IL-13
Assay: competition ELISA; 24 h incubation
Remark: another data set of the same source

| EC50 | Binder |
| --- | --- |
| 6.9 pM | B6 |
| 3.6 pM | B7 |
